Assay results taken from the DeepSol protein solubility set.

assay: soluble on expression in E. coli; label from the status in PepcDB or PDB records

Sequence	soluble on expression in E. coli
MGSDKIHHHHHHMGVMMKQKIKILTVIGLMTVGMSACHNTSKPSNTDSVFSLTGKKRQQIVKQVRQRYYFQQLSKTEQENYLTLYDSLAQFREIISLTPASKKSLIKTIDAFVMDNPEFYWITSADYRFEFSDQTVFVTFPIPEDAKNIYQDLQAIGNDIVANTPSKDRYEQVKYFYEVIIRDTDYNKKAFEAYQSGSQAQVASNQDIKSVFIDHLSVCNGYAQAFQFLCQKAGIPVAYIRGTGTSQQPQQSFAHAWNAVQINNTYYGVDVTWGDPVFDNHLSHQKQGTINYSFLCLPDYLMALSHQPSKDIAFNTKERFENVWTIPSCTDDSLLYSKRHQSYISTFDSDAILASLENQLLNRQEPLSLQFAHQDDYQQMVTDLTTNQTGYHNLFNQYWNNYTGFTYGLLPETLSISFASRN	not soluble
MKEILDHYGSLLSRIDDWFRACLDSSGDRIRCADGCSDCCRGLFDITLLDAAFLRRGFDRLDPEVREQVLVRCRERIAILRLVWPEFDQPFILNMRPDDEWEALMPDDDETPCPLLDRHGRCLVYEHRPMTCRLHGLPLVDVSGEIMHDEWCTLNCIDADPLADPALRGDFDRIFTEEVRLIRTFAGRLLGHPLSEVDTFIPTALVIAFDSINWLSWGNRLAALSLSDPRSKLEHHHHHH	not soluble
MVRLTTELFAERPQFVNSVNMREINLRGQKIPVIENMGVTRDQFDVIDLTDNDIRKLDNFPTFSRLNTLYLHNNRINYIAPDIATKLPNLKTLALTNNNICELGDIEPLAECKKLEYVTFIGNPITHKDNYRMYMIYKLPTVRVIDFNRVRLTEREAAKKMFKGKSGKKARDAIQKSVHTEDPSEIEPNENSSGGGARLTDEDREKIKEAIKNAKSLSEVNYLQSILASGKVPEKGWNRQMDQNGADGEAMES	not soluble
MGSDKIHHHHHHMEKLLTIVVPAYNVEKYIKNCLDSFIDLSVLRSLEILIVDDGSTDSTASLAHTYEQKYPYSFKVLSKENGGHGSTINYAIPRATGKYFKVVDGDDWLDKSLLPQFVQLLKHTHSDVISNDFNLVDDKTKKVTKRRKAVSNSYHYNREWGFAEAVMDPLITIHSMTIRTDVLQKNDIRVDEHCFYEDQEYILYPIPYCTSITFSPLPLYQYRLGRSGQSVDIKMMIKRHDQHLKVLDALFEYNNVHGNLQTYKKQYLERGIAEAVDDEYQIFLAKGNDTRNVEQMKKFDEMLREEHPGVYQACSRKSVWMLRKTGFKIFPMAAWVYSRLRGN	not soluble
MTDNSQFHAASALVQAAHTVSVVGHLRPDADAIGSVAATVAALQQLGKDAVGAIGQLDSMPENLYTIPGASNIKFGDSLPESDLIIVVDCGSIERTGAFESIIVNNPDKVLVVDHHATNPGFGAVNLIDVEAESTTTILYDWFDAMSVQITPDIAHGLYAGLLTDTGCFRWGRPVMHDMAKELMEFGLDIRAISSALLDQTSVDDLRLVGQIVSRIELREAGPYTLAVLVADFDTINGRSRAVVEGLIEMVRAVEGADFGAVFKEYERGVYTVSLRSSNLSVASLAVHLGGGGHIPAAGYTARGTEIEALDTLIEATVTLGESLRSSAHVDVLEHHHHHH	soluble
MAHNYLLEIGLEEIPAHVVTPSIKQLVQKVTAFLKENRLTYDSIDHFSTPRRLAIRINGLGDQQPDIEEDAKGPARKIAQDADGNWTKAAIGFTRGQGLTVDDITFKTIKGTDYVYVHKLIKGKMTKEILTGLKEVVESINFPTMMKWANFDFKYVRPIRWLVSILDEEVLPFSILDVTAGRRTEGHRFLGEAVELANAEEYEAKLHDQFVIVDADERKQLISNQIKAIAESNRWNVTPNPGLLEEVNNLVEWPTAFNGGFDEKYLAIPEEVLITSMRDHQRFFFVRDQAGKLLPNFISVRNGNEEFIENVVRGNEKVLTARLEDAAFFYEEDQKHDINYYVDRLKKVSFHDKIGSMYEKLQRVNSIAKVIGNTLNLNQTELDDIDRATMIYKFDLVTGMVGEFSELQGVMGEKYAQLNGENQAVAQAIREHYMPNSAEGDLPESVTGAVVALADKFDNIFSFFSAGMIPSGSNDPYALRRHAYGIVRILNSRDWQLDLNQFKSQVKTELAENGTAFGVDVDQNFDQVLNFFNDRIKQLLDHQKISHDIVETVLTGNNHD	not soluble
MLIILLLTVLTVYLVYELYWKRRNFPPGPCPLPVFGNLLSIANPPPGYEAFERWTKKYGDIYTFWIGNTPHIMINTWDKIKETYIRDAETYTNKVRLPALDLFRGGEYGIIDSNGATWREHRRFALSTMRDFGLGKNLMQENILMEVQDVFARLDAKLGSETDIPEVFDHAVANVVNQLLFGYRFVGPKESEYQELKRIIEAPTDLFGKPHMFLAMNIPVIAKLMPEFMYEGPFKDFRDTAFAFFNKQIEAHRQEVDLNDLNSESTDFVETFLKEQKRRESEGDSETFSNVQLSNVCMDLWFAGLNTTTNTITWAISYILHHPEVQDKVHEEMDKVIGSDRLITTADKNDLPYFNAFINEAQRGINIVPLNLQHATTRDTVINGFKIPKGTGVVAQISTVMNNEEVFPDPHTFNPDRFIDEHGKLKRVEELAPFSVGKRSCPGEGLARMELFLFIANFLNRYKIYPSKEGPPSMDKSNGALIAPRLFSATLKRRS	not soluble
KILSVGSFGCNFVCDFCQNYDISQRKARSTFAPKEELIRIAMTTEDNIGLAFTYNEPSIWYEYMYDCAKLLKETDEKRSVVFVTNGFLSEEPLKKLLPYVDAMNIDLKSFKESYYKSLCGGRLNPVLETIKMAAKVCHVEVTTLLVSGENDNLDEIEEIAKFLASVNSEIPLHLSRYFPRYKLENPPTDVEFMQEAKKTAEKYLKRVMLGNV	not soluble
MSPLWLVVFIVPLASGISLSDCSKKNSCYGSPVNCQPGIDCHVLLRFEDDGTLDVHLQNFTAPDGYVALAYNSNQNAPTEYLICIPHERKRLRGISSQGEIITITEQNMAQYVAQMDTNTFICSFVGKEIPSNFRMQSNFVVSEGLFANESNIPTTYKLEPISTDSVFFHPIAATIGRQDEALSEDEEKLATDLLGKVQRLSDHDSESTDMEAILNEKNRFTIEEFEEKLFSAMSNRRRPIKKFEREEEDQDDDEYSEVEEKESHPKKRREHKKGRHTRVLSDEQEEDYDQYEDDMPSKKRKRPFNSEELENGEDVDFGKKSNKNSQKGTFDGQRQR	not soluble
GSHMGQLGGEEWTRHGSFVNKPTRGWLHPNDKVMGPGVSYLVRYMGCVEVLQSMRALDFNTRTQVTREAISLVCEAVPGAKGATRRRKPCSRPLSSILGRSNLKFAGMPITLTVSTSSLNLMAADCKQIIANHHMQSISFASGGDPDTAEYVAYVAKDPVNQRACHILECPEGLAQDVISTIGQAFELRFKQYLR	soluble
MKFINIVGTTASGKTTFARQLALKLNLTHIEMDDLFWLDGWQETPDDEFFLKLKNKMDIAKDGWVLDGNYSRTLHLKLDKLDTMIWLDYSFTLNFYRSVKRAISRIITKEPLWENSNNYESFKQSFLSKNSIILWMINHYAKNRKKYLNMMHDPQYRHIQFIRLTSPKQAKVFLDSL	not soluble
MGSDKIHHHHHHMIKSVLVIRNDKIGDFVLTWPALYELKMALPNASIEVFVDPVLKDFAMACPYIDHVIVDDGDDQAITKAFAERHYDAVIVSRSQIRTYRLLRKLDIPYKLAPKLNWYQYLYQHRTSIEVPKGLGGWRKSCMMVERFLADHRIPVPTLPTRYWDLSHERRKWQDHYGQQGEERLIFAHPGTGGSSGGISPSDFAGLLAQVDKLTAIECKFVLTYSGQEIALAQQIYDLLSAQGIKVVMAEPLASLADFAKSLVAADMFMAGSTGPLHIAGLHNVPTVGFYAGRRSAPKVRWQTLTQSERRLAFTPPVGKKTGRNMALIDFDLAAKEIAAFLDTQYASQSAVS	not soluble
MGSDKIHHHHHHMSNRKINPFVVTGKIEPEYFCDRESESARLIKSIANGNNSVVISPRRMGKTGLIQFCYDKEEIGRNYYTFFIDILHTSSLREFTYLLGREIYETLLPQSKKMINLFVRTLKSISGRFGFDPVSGMPTFGIELGDIEHPEYTLEEIFRYLADADRPCIVAIDEFQQIAKYPEKNIEALLRTHIQKLRNCNFIFAGSERHMMQEMFASAARPFYHSADMLELKAIEADVYIPFIVGHFEKRDRSISPDDAARVYRLFKGHTFYIQKTFNEAFADTPEGEVCTPEIIESAIDNMIASNDTIFREILSNIPEKQKTLLYAIAKEGEAERITSTGFIKRHNLISASSVQSAANKLLDKDIITEINKVYCVTDKLFAMWINTLYGTKDFWRMTSRP	not soluble
